The target in experiment [1] is T1, human claudin 9 (CLDN9) (human, UniProt O95484 1-217).
T1 construct: also called human CLDN9
T1 sequence: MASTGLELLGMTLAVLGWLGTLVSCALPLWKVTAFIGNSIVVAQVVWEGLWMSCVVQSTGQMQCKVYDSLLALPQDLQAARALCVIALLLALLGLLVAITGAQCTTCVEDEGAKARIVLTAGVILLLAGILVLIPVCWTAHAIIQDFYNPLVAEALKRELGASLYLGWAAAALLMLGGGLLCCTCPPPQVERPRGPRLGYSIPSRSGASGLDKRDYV
Nature of the experiment: flow cytometry on HEK293T/human CLDN9 cells (non-specific binding validation). A general note: A flow cytometer gives signals particle by particle.

The target in experiment [2] is T2, human claudin 6 (CLDN6) (human, UniProt P56747 1-220).
T2 construct: also called human CLDN6; hCLDN6
T2 sequence: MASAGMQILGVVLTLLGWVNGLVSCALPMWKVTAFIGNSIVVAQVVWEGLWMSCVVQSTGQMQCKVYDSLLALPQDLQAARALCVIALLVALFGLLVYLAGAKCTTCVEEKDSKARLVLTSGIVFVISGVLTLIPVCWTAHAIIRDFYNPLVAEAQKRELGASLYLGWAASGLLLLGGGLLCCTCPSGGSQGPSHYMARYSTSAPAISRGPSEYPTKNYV
As to the kind of experiment: flow cytometry on HEK293T/human CLDN6 cells. As for the experimental part: For affinity determination, CLDN6 over-expressing HEK293T cells and cancer cell line PA-1 which express high levels of human CLDN6 were used to evaluate the binding activity of BG87P related engineering variants. Live cells were seeded in 96-well plate, and were incubated with a series of dilutions of chBG87P and engineered variants thereof. Goat anti-human IgG was used as second antibody to detect antibody binding to the cell surface. EC50 values for dose-dependent binding to CLDN6 expressing cell lines were determined by fitting the dose-response data to the four-parameter logistic model with GraphPad Prism. Cell binding activity of 1st round of BG87P humanization variants against HEK293T/human CLDN6 were compared to chBG87P and shown in FIG. 1A.

Numbering of substitutions follows the chain as printed.

B1: BG87P-34 (antibody, V domains shown)
VH: EVQLQESGGGLVQPGGSLRLSCAASGYSFSDYHINWVRQAPGKGLEWVGYIYPGSGHTKYNEKFKGRFTISRDTSSNTAYLQMNSLRAEDTAVYYCARSGIYHYVSSYYFDHWGQGTLVTVSS
VL: DIQMTQSPSSLSASVGDRVTITCKASQDAGSAVAWYQQKPGKAPKLLIYWASTRHTGVPSRFSGSGSGTDFTLTISSLQPEDFATYYCQQYSSYTFGGGTKLEIK
notes: Final lead clone, framework IGHV3-23 and IGKV1-39; also called BG87-34
Consider B1, for which, in experiment [1], the binding result is recorded as “no binding”.

B2: BG87P-33 (antibody, V domains shown)
VH: B1 VH with S30T, G49S, S76K
VL: B1 VL with S10T, D70E, E81D, L102V
notes: Framework-swapped variant; also called BG87-33
By EC50 (read off the curve) is commonly meant the concentration needed to bring the measured effect to its halfway point. With B2, the “EC50 (read off the curve)” value in experiment [2] was around 30 nM.
